According to article PMC6978714 (2019):
No end group written: not given here.

Target: recombinant HLA-DRB1*01:01 protein (HLA-DR α chain with DRB1*01:01 β chain) (human)

| Kd [nM] | Binder |
| --- | --- |
| 22 | TQDENPVVHFFKNIVTPRTPPPSQ (also: biotinylated, position not given here) [chemically synthesized biotinylated peptide MBP 81-104] |
| 101 | DAQGTLSKIFKLGGRDSRSGSPMAR (not fully specified; also: thioredoxin-fused, end not given here, biotinylated chemically (EZ-Link Sulfo-NHS-LC-biotin, 1:20), position not given here) [thioredoxin-fused MBP 146-170 (MBP epitope library), biotinylated] |
| 52 | DAQGTLSKIFKLGGRDSRSGSPMAR (also: biotinylated, position not given here) [chemically synthesized biotinylated peptide MBP 146-170] |
| 103 | TQDENPVVHFFKNIVTPRTPPPSQ (not fully specified; also: thioredoxin-fused, end not given here, biotinylated chemically (EZ-Link Sulfo-NHS-LC-biotin, 1:20), position not given here) [thioredoxin-fused MBP 81-104 (MBP epitope library), biotinylated] |
